Results from patent US20260184809A1 (Genmab, published 2026).

T1: recombinant cynomolgus monkey EpCAM (R&D systems, cat no. 10451-EP) (cynomolgus monkey, UniProt Q1WER1 24-265 (rhesus entry))
T1 construct: also called cynomolgus monkey EpCAM extracellular domain
T1 sequence: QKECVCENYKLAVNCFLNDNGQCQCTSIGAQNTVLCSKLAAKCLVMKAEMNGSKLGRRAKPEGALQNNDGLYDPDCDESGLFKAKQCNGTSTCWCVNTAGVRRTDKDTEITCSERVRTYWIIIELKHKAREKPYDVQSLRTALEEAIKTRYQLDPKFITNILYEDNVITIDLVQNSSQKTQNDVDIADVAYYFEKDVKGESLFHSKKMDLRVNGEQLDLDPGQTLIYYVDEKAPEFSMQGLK


What was measured:
[1] = biological target: T2, His-tagged FcRn (SinoBiological, cat. no. CT009-H08H-B) (UniProt P55899 24-297; P61769 21-119); experiment: SPR kinetics at pH 6.0; His-tagged FcRn captured, antibody 0-100 nM as analyte; mean
T2 construct: also called neonatal Fc receptor
T2 sequence (P55899 24-297 limits assumed, form in doubt, chain 1 of 2): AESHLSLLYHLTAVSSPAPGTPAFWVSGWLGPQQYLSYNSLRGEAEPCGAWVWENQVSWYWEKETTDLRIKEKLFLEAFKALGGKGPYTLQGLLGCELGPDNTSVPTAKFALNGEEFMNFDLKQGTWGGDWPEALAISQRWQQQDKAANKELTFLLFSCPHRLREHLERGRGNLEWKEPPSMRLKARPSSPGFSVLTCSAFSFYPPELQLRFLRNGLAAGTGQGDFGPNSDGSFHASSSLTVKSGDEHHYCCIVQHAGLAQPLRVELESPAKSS
T2 sequence (P61769 21-119 limits assumed, form in doubt, chain 2 of 2): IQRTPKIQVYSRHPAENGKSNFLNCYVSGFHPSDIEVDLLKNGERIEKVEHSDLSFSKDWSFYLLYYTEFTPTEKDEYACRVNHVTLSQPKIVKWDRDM

[2] = biological target: FcγRIa (CD64 Protein, Human, Recombinant (His Tag), Biotinylated; SinoBiological 10256-H08S-B) (human, UniProt P12314 16-288); experiment: SPR (Biacore 8K), His-tagged FcγR captured on anti-His chip, antibody as analyte, endpoint response against concentration
FcγRIa (CD64 Protein, Human, Recombinant (His Tag), Biotinylated; SinoBiological 10256-H08S-B), sequence (P12314 16-288 limits assumed, stated change not applied): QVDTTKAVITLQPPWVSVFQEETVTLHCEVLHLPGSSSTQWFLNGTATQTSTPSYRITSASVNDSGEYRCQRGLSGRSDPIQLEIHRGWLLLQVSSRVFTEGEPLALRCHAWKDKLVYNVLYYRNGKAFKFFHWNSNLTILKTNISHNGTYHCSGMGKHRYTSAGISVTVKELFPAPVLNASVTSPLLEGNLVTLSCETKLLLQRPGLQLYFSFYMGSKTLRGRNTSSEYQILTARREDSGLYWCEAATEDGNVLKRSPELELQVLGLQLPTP

[3] = biological target: T2, His-tagged FcRn (SinoBiological, cat. …); experiment: SPR kinetics at pH 6.0; His-tagged FcRn captured, antibody 0-100 nM as analyte
[4] = biological target: T1, recombinant cynomolgus monkey EpCAM …; experiment: BLI (Octet HTX); recombinant cynomolgus monkey EpCAM on anti-Penta-HIS sensors, antibody 1.56-100 nM in solution

Binder | Kd [1] [nM] | EC50 (read off the curve) [2] [nM] | koff [3] [s⁻¹] | kon [3] [M⁻¹ s⁻¹] | Response [4] [nm]
IgG1-b12 (wild-type Fc) (antibody) heavy: not shown light: EIVLTQSPGTLSLSPGERATFSCRSSHSIRSRRVAWYQHKPGQAPRLVIHGVSNRASGISDRFSGSGSGTDFTLTITRVEPEDFALYYCQVYGASSYTFGQGTKLERKRTVAAPSVFIFPPSDEQLKSGTASVVCLLNNFYPREAKVQWKVDNALQSGNSQESVTEQDSKDSTYSLSSTLTLSKADYEKHKVYACEVTHQGLSSPVTKSFNRGEC | 29 | ~50 | 0.0322 | 1.1e+06 | –
BisG2amm-EpCAM-323-A3-AALT/m4-1BB-3H3-AAKR (bispecific antibody, mouse IgG2a, kappa, also called BsIgG2amm-EpCAM-323-A3-AALT/m4-1BB-3H3-AAKR; BisIgG2amm-EpCAM-323-A3-AALT/m4-1BB-3H3-AAKR) heavy 1: QIQLVQSGPELKKPGETVKISCKASGYTFTNYGMNWVRQASGEGLKWMGWINTYTGEPTYGEDFKGRFAFSLETSASTAYLQINNLKNEDTATYFCARFGNYVDYWGQGTTLTVSSAKTTAPSVYPLAPVCGDTTGSSVTLGCLVKGYFPEPVTLTWNSGSLSSGVHTFPAVLQSDLYTLSSSVTVTSSTWPSQSITCNVAHPASSTKVDKKIEPRGPTIKPCPPCKCPAPNAAGGPSVFIFPPKIKDVLMISLSPMVTCVVVDVSEDDPDVQISWFVNNVEVLTAQTQTHREDYNSTLRVVSALPIQHQDWMSGKEFKCKVNNKALPAPIERTISKPKGSVRAPQVYVLPPPEEEMTKKQVTLTCMVTDFMPEDIYVEWTNNGKTELNYKNTEPVLDSDGSYLMYSKLTVEKKNWVERNSYSCSVVHEGLHNHHTTKSFSRTPG light 1: DIVMTQAAFSNPVTLGTSASISCRSSKNLLHSNGITYLYWYLQKPGQSPHLLIYQMSNLASGVPDRFSSSGSGTDFTLRISRVEAEDVGVYYCAQNLEIPRTFGGGTKLEIKRADAAPTVSIFPPSSEQLTSGGASVVCFLNNFYPKDINVKWKIDGSERQNGVLNSWTDQDSKDSTYSMSSTLTLTKDEYERHNSYTCEATHKTSTSPIVKSFNRNEC heavy 2: EMQLVESGGGLVQPGRSMKLSCAGSGFTLSDYGVAWVRQAPKKGLEWVAYISYAGGTTYYRESVKGRFTISRDNAKSTLYLQMDSLRSEDTATYYCTIDGYGGYSGSHWYFDFWGPGTMVTVSSAKTTAPSVYPLAPVCGDTTGSSVTLGCLVKGYFPEPVTLTWNSGSLSSGVHTFPAVLQSDLYTLSSSVTVTSSTWPSQSITCNVAHPASSTKVDKKIEPRGPTIKPCPPCKCPAPNAAGGPSVFIFPPKIKDVLMISLSPMVTCVVVDVSEDDPDVQISWFVNNVEVLTAQTQTHREDYNSTLRVVSALPIQHQDWMSGKEFKCKVNNKALPAPIERTISKPKGSVRAPQVYVLPPPEEEMTKKQVTLTCMVKDFMPEDIYVEWTNNGKTELNYKNTEPVLDSDGSYFMYSRLRVEKKNWVERNSYSCSVVHEGLHNHHTTKSFSRTPG light 2: DIQMTQSPSLLSASVGDRVTLNCRTSQNVYKNLAWYQQKLGEAPKLLIYNANSLQAGIPSRFSGSGSGTDFTLTISSLQPEDVATYFCQQYYSGNTFGAGTNLELKRADAAPTVSIFPPSSEQLTSGGASVVCFLNNFYPKDINVKWKIDGSERQNGVLNSWTDQDSKDSTYSMSSTLTLTKDEYERHNSYTCEATHKTSTSPIVKSFNRNEC | – | – | – | – | 0.02
